Experimental data from patent US20260035426.

Chain of recombinant human MMP9 (chain, as listed by the source): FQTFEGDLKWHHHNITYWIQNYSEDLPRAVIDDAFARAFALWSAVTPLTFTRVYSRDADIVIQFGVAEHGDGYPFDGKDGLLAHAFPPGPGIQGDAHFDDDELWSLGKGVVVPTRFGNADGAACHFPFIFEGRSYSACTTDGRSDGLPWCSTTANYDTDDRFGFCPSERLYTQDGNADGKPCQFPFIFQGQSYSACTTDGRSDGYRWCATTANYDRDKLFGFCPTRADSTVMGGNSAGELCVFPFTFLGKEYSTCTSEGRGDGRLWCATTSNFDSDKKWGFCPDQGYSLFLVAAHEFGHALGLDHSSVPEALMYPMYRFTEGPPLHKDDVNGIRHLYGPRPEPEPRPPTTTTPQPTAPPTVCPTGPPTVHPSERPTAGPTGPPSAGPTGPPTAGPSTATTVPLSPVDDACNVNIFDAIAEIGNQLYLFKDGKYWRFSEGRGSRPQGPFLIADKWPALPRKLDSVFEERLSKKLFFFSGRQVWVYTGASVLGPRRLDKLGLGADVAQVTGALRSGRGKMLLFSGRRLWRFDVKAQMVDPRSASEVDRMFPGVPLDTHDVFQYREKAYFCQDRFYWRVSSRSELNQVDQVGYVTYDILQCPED
Chain of SB1902-C5 (chain, as listed by the source, chain 1 of 2): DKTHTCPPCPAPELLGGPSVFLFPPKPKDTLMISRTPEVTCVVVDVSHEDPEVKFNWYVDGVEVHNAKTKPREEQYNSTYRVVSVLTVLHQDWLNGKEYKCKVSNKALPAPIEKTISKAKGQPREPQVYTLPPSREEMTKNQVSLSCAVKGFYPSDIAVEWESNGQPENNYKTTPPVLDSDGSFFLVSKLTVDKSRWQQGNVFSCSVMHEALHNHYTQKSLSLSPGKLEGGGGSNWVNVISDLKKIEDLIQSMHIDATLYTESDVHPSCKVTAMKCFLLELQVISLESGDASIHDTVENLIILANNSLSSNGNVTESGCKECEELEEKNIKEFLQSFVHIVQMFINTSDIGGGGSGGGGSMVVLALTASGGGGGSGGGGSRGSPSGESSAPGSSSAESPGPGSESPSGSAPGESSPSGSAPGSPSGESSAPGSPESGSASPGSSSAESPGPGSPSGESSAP
Chain of SB1902-C5 (chain, as listed by the source, chain 2 of 2): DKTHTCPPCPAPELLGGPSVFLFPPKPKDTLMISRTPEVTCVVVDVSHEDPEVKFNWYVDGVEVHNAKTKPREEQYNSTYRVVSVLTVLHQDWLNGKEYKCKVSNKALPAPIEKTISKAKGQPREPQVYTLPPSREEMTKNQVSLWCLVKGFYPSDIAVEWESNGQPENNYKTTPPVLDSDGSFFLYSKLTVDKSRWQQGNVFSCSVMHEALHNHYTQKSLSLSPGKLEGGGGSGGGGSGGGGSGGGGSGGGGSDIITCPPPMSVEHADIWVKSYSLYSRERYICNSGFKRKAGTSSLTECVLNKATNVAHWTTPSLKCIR
Chain of SB1902-C4 (chain, as listed by the source, chain 1 of 2): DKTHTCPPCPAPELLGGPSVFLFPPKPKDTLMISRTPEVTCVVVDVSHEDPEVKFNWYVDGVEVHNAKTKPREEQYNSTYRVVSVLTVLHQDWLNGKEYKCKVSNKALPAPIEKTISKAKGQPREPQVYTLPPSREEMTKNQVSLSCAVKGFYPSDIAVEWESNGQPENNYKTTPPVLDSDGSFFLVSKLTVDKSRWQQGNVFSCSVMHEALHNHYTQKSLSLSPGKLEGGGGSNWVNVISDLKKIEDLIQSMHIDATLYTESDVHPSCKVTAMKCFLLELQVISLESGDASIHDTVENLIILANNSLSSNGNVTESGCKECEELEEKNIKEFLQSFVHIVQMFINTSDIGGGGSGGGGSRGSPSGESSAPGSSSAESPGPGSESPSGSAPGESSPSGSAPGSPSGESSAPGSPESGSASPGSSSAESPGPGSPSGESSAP
Chain of SB1902-C4 (chain, as listed by the source, chain 2 of 2): as the sequence (chain, as listed by the source, chain 2 of 2) above
Chain of SB1902-C2 (chain, as listed by the source, chain 1 of 2): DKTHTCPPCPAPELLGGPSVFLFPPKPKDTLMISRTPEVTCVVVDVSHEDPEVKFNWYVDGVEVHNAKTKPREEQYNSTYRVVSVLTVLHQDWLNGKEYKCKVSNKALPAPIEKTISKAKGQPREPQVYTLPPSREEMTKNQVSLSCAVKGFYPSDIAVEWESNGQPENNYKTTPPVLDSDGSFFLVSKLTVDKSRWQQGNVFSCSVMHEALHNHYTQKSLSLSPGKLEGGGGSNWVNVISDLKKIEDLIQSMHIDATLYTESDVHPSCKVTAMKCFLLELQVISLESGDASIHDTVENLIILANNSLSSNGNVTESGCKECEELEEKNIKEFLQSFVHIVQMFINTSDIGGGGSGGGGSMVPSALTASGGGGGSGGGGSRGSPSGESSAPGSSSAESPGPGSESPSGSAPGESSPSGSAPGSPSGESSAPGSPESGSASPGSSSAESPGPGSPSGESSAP
Chain of SB1902-C2 (chain, as listed by the source, chain 2 of 2): as the sequence (chain, as listed by the source, chain 2 of 2) above

With recombinant human MMP9 the “in vitro protease digestion (data not shown)” value (CM5) was “The other cleavable moieties (such as CM2, CM5-CM10) was also cleavable in vitro by both MMP2 and MMP9 (data not shown)”, the “in vitro protease digestion (data not shown)” value (CM7) was “The other cleavable moieties (such as CM2, CM5-CM10) was also cleavable in vitro by both MMP2 and MMP9 (data not shown)” and the “in vitro protease digestion, polyacrylamide gel” value (SB1902-C5) was “The mutated substrate CM4 was cleavable in vitro by both MMP2 and MMP9 enzymes, with an enzyme dose-dependent manner”. For the same substance, the “in vitro protease digestion (data not shown)” value (CM10) was “The other cleavable moieties (such as CM2, CM5-CM10) was also cleavable in vitro by both MMP2 and MMP9 (data not shown)”, the “in vitro protease digestion (data not shown)” value (CM9) was “The other cleavable moieties (such as CM2, CM5-CM10) was also cleavable in vitro by both MMP2 and MMP9 (data not shown)” and the “in vitro protease digestion (data not shown)” value (CM6) was “The other cleavable moieties (such as CM2, CM5-CM10) was also cleavable in vitro by both MMP2 and MMP9 (data not shown)”. The “in vitro protease digestion (data not shown)” value (CM8) was “The other cleavable moieties (such as CM2, CM5-CM10) was also cleavable in vitro by both MMP2 and MMP9 (data not shown)”, the “in vitro protease digestion, polyacrylamide gel” value (SB1902-C4) was “the non-cleavable G4S linker in SB1902-C4 was resistant to both MMP2 and MMP9 enzyme digestion” and the “in vitro protease digestion (data not shown)” value (CM2) was “The other cleavable moieties (such as CM2, CM5-CM10) was also cleavable in vitro by both MMP2 and MMP9 (data not shown)”. The “in vitro protease digestion, polyacrylamide gel” value (SB1902-C2) was “The mutated substrate CM1 was cleavable in vitro by both MMP2 and MMP9 enzymes, with an enzyme dose-dependent manner”.
